The source of these data is the supplement of paper PMC10724198.

In this series the test system is Saccharomyces cerevisiae. As to the kind of experiment: protein stability index of tFT-peptide fusion (C-terminal peptide) (PSI (0-1 scale)); higher = more stable (slower turnover). The following applies: temperature: 30 C. Here is the method: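 MPS profiling in S. cerevisiae of the yeast C-terminome library: the last 12 aa of each annotated ORF are fused to the C-terminus of a sfGFP-mCherry timer, after a GGGS linker. Cells are FACS-sorted into 8 mCherry/sfGFP bins and deep-sequenced. PSI runs from 0 (unstable) to 1 (stable); wild type and das1Δ backgrounds, two technical replicates each.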

[1] abbreviates: genetic background: das1 deletion.

± gives the standard deviation of the averaged measurements.

Regarding LCKEELKYQAIQ [YMR099C C-terminal 12 aa], the protein stability index is, setting by setting: under setting [1], 0.701 ± 0.037; (genetic background: wild type) 0.6649 ± 0.0029.
Sequence LCQHYIGWCPFW [TOR1 C-terminal 12 aa] had a protein stability index under setting [1] of 0.7144 ± 0.0024 and a protein stability index (genetic background: wild type) of 0.687 ± 0.011.
The like results for LDGSREVGAAKS [UME1 C-terminal 12 aa] were, in that order, 0.682 ± 0.026 and 0.7109 ± 0.0018.
Consider LDKELTDGCKQQ [PEX19 C-terminal 12 aa], for which the protein stability index was determined as 0.7031 ± 0.005 under setting [1] and 0.684 ± 0.012 (genetic background: wild type).
For LDKVGKKKGGKK [LRP1 C-terminal 12 aa], the protein stability index was 0.701 ± 0.049 under setting [1] and 0.689 ± 0.025 (genetic background: wild type).
For LDLWRDFLNQAN [IDS2 C-terminal 12 aa], the protein stability index runs as follows: under setting [1], 0.742 ± 0.015; (genetic background: wild type) 0.629 ± 0.029.
The like results for LDQFEINSDGEE [NCS2 C-terminal 12 aa] were, in that order, 0.691 ± 0.022 and 0.709 ± 0.012.
Consider LEAATNFLLDSA [EDE1 C-terminal 12 aa], for which the protein stability index stood at 0.722 ± 0.027 under setting [1] and 0.6796 ± 0.004 (genetic background: wild type).
With LELEFNSHFELK [HNT3 C-terminal 12 aa], the protein stability index is, setting by setting: under setting [1], 0.69 ± 0.008; (genetic background: wild type) 0.7 ± 0.041.
For LEWLSNSLKNST [ARF1 C-terminal 12 aa], in that order: 0.735 ± 0.034 and 0.6802 ± 0.0039.
In turn, LFVEETNDIGYK [TRE2 C-terminal 12 aa] yielded a protein stability index under setting [1] of 0.736 ± 0.026 and a protein stability index (genetic background: wild type) of 0.691 ± 0.021.
For the sequence LFYVMTMTKFLF [PHM6 C-terminal 12 aa], the protein stability index stood at 0.5199 ± 0.0025 under setting [1] and 0.364 ± 0.0018 (genetic background: wild type).
Take LGDAYVSSDEEF [YEF3 C-terminal 12 aa]: the protein stability index is, setting by setting: under setting [1], 0.683 ± 0.016; (genetic background: wild type) 0.6769 ± 0.0049.
The like results for LGEYIEEMNIRS [YBP2 C-terminal 12 aa] were, in that order, 0.7143 ± 0.0008 and 0.684 ± 0.018.
As to LGGLLTVLIWFL [KRE1 C-terminal 12 aa], the protein stability index was determined as 0.335 ± 0.004 under setting [1] and 0.332 ± 0.014 (genetic background: wild type).
LIDSVKKKVNND [SAC3 C-terminal 12 aa]: the protein stability index is 0.681 ± 0.029 under setting [1] and 0.697 ± 0.069 (genetic background: wild type).
For LIGGNTNDGLSK [CHA4 C-terminal 12 aa], in that order: 0.683 ± 0.023 and 0.722 ± 0.029.
For the sequence LIMELAVNSQSN [SNF1 C-terminal 12 aa], the protein stability index is 0.681 ± 0.034 under setting [1] and 0.691 ± 0.027 (genetic background: wild type).
Turning to LIQFLEPSKRVA [YPT35 C-terminal 12 aa], the protein stability index runs as follows: under setting [1], 0.72 ± 0.037; (genetic background: wild type) 0.722 ± 0.042.
For “LITTRTVHRSLD [YEL076C-A C-terminal 12 aa]”, the protein stability index turned out to be 0.6963 ± 0.0014 under setting [1] and 0.6572 ± 0.0041 (genetic background: wild type).
Take LKDLEKLGWKDE [YGR054W C-terminal 12 aa]: the protein stability index under setting [1] worked out at 0.695 ± 0.013 and the protein stability index (genetic background: wild type) came to 0.666 ± 0.022.
LKKQIFEKVQKE [MET4 C-terminal 12 aa]: the protein stability index was 0.701 ± 0.02 under setting [1] and 0.635 ± 0.022 (genetic background: wild type).
The like results for LKPWEGRIYISE [IMA1 C-terminal 12 aa] were, in that order, 0.714 ± 0.016 and 0.6846 ± 0.0068.
For LKSLSKYSVQNS [CTF3 C-terminal 12 aa], the protein stability index is 0.686 ± 0.014 under setting [1] and 0.678 ± 0.042 (genetic background: wild type).
Regarding LKTIAAVFSVRV [YJR114W C-terminal 12 aa], the protein stability index is 0.612 ± 0.0077 under setting [1] and 0.629 ± 0.022 (genetic background: wild type).
For the sequence LLERLSILDRLD [APS2 C-terminal 12 aa], the protein stability index under setting [1] is 0.669 ± 0.019 and the protein stability index (genetic background: wild type) came to 0.69 ± 0.013.
Take LLIPRRILTLDL [PDL32 C-terminal 12 aa]: the protein stability index runs as follows: under setting [1], 0.602 ± 0.001; (genetic background: wild type) 0.605 ± 0.036.
Turning to LLLLILNECYPA [BUD30 C-terminal 12 aa], the protein stability index is, setting by setting: under setting [1], 0.518 ± 0.0085; (genetic background: wild type) 0.539 ± 0.033.
